Experimental data reported in paper PMC5618632, “In Vitro Glucuronidation of Wushanicaritin by Liver Microsomes, Intestine Microsomes and Expressed Human UDP-Glucuronosyltransferase Enzymes” (International Journal of Molecular Sciences, 2017).

Tests used:
[1] = Glucuronidation by pooled human liver microsomes (HLM), UDPGA-supplemented; type: in vitro ADME; settings: probe substrate glucuronidation
Protocol: (§1) The reaction was terminated by adding ice-cold acetonitrile. […] All experiments were performed in triplicate.
(§2) The parameter were as follow. V is the formation rate of the product. Vmax is the maximal velocity. […] Ksi is the substrate inhibition constant. […] (1) V=Vmax ×[S]/Km+[S] (2) V=Vmax ×[S]/Km + [S](1+[S]/Ksi)

expressed human UGT1A1 = biological target: T1, expressed human UGT1A1 (Homo sapiens, UniProt P22309); experiment: Glucuronidation by expressed UGT1A1
T1 sequence (P22309 26-533): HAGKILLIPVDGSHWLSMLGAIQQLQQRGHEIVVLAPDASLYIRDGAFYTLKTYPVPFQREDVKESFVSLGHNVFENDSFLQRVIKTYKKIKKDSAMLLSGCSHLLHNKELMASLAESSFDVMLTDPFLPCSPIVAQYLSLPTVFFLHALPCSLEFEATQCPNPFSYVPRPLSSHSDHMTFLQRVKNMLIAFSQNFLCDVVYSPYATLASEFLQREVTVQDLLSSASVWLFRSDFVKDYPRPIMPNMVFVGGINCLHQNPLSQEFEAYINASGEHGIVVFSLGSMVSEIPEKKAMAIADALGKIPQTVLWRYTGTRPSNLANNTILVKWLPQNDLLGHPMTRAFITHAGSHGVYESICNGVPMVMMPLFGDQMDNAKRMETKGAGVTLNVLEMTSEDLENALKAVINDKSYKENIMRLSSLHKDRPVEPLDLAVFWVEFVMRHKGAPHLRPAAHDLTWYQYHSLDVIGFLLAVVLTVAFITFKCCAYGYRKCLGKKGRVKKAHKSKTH
Protocol: as §1
The gradient elution program was the same as the UPLC condition of the structural identification of wushanicaritin glucuronides above. The detection wavelength was set at 270 nm, and the injection volume was 8 µL.
as §2
The contribution of individual expressed UGT enzymes to wushanicaritin glucuronidation in HLM was evaluated by the relative activity factor (RAF) approach as described in previous studies. The relative activity factor was defined as the activity ratio of HLM to an expressed UGT enzyme (Supersome) toward a probe substrate for this enzyme using Equation (3). The relative amount of wushanicaritin glucuronidation in HLM attributed to an expressed UGT enzyme was estimated by multiplying the glucuronidation activity (i.e., the intrinsic clearance) derived with this enzyme by the corresponding RAF. […] The contributions of individual UGT enzyme were calculated according to Equation (4). (3) RAF=CLint{probe,pHLM}/CLint{probe,Supersome} (4) Contribution of UGTs=CLint(wushanica ritin,UGTs)/CLint(wushanica ritin,pHLM)×RAF

[2] = parameters: method as in PMID 21968061; settings: DPPH radical scavenging (antioxidant activity); cited from earlier work
[3] = substrate: COc1ccc(-c2oc3c(CCC(C)(C)O)c(O)cc(O)c3c(=O)c2O)cc1; experiment: Glucuronidation by expressed UGT1A8; type: in vitro ADME, human; settings: pH 7.4
Protocol: as §1, §2

not read [4] = substrate: COc1ccc(-c2oc3c(CCC(C)(C)O)c(O)cc(O)c3c(=O)c2O)cc1; experiment: not read; settings: pH 7.4
Protocol: Briefly, the incubation mixture mainly contained 50 mM Tris-hydrochloric acid buffer (pH 7.4), 0.88 mM MgCl2, 22 µg/mL alamethicin, 4.4 mM saccharolactone and 3.5 mM UDPGA [32]. The reaction was terminated by adding ice-cold acetonitrile. […] The supernatant was subjected to UPLC/Q-TOF-MS (Waters Corporation, Manchester, UK) analysis. […] All experiments were performed in triplicate. Preliminary experiments were performed to ensure that the rates of glucuronidation were determined under linear conditions with respect to the incubation time and protein concentration.
Appropriate models were selected by visual inspection of the Eadie–Hofstee plot [34]. Model fitting and parameter estimation were performed by GraphPad Prism V5 software (GraphPad Software, Inc., San Diego, CA, USA).
V is the formation rate of the product. Vmax is the maximal velocity. Km is the Michaelis constant, and [S] is the substrate. Ksi is the substrate inhibition constant. The intrinsic clearance (CLint) was derived by Vmax/Km for the Michaelis–Menten and substrate inhibition models [12]. (1) V=Vmax ×[S]/Km+[S] (2) V=Vmax ×[S]/Km + [S](1+[S]/Ksi)
(§3) The contribution of individual expressed UGT enzymes to wushanicaritin glucuronidation in HLM was evaluated by the relative activity factor (RAF) approach as described in previous studies [2, 12]. The relative activity factor was defined as the activity ratio of HLM to an expressed UGT enzyme (Supersome) toward a probe substrate for this enzyme using Equation (3). The relative amount of wushanicaritin glucuronidation in HLM attributed to an expressed UGT enzyme was estimated by multiplying the glucuronidation activity (i.e., the intrinsic clearance) derived with this enzyme by the corresponding RAF. […] The contributions of individual UGT enzyme were calculated according to Equation (4). (3) RAF=CLint{probe,pHLM}/CLint{probe,Supersome} (4) Contribution of UGTs=CLint(wushanica ritin,UGTs)/CLint(wushanica ritin,pHLM)×RAF

[5] = substrate: COc1ccc(-c2oc3c(CCC(C)(C)O)c(O)cc(O)c3c(=O)c2O)cc1; experiment: Glucuronidation by expressed UGT1A3; type: in vitro ADME, human; settings: pH 7.4
Protocol: Wushanicaritin was incubated with HLM, HIM and expressed UGTs enzymes to determine the rates of glucuronidation as published previously [12, 23, 31]. Briefly, the incubation mixture mainly contained 50 mM Tris-hydrochloric acid buffer (pH 7.4), 0.88 mM MgCl2, 22 µg/mL alamethicin, 4.4 mM saccharolactone and 3.5 mM UDPGA [32]. The reaction was terminated by adding ice-cold acetonitrile. The samples were vortexed and centrifuged at 13,800× g for 10 min. The supernatant was subjected to UPLC/Q-TOF-MS (Waters Corporation, Manchester, UK) analysis. […] Similarly, wushanicaritin was incubated with DLM, RLM, MkLM, RaLM and GpLM in the same way as for HLM. All experiments were performed in triplicate. Preliminary experiments were performed to ensure that the rates of glucuronidation were determined under linear conditions with respect to the incubation time and protein concentration.
Serial concentrations of wushanicaritin (0.156–20 µM) were incubated with HLM, HIM and expressed UGTs enzymes to determine wushanicaritin glucuronidation rates. […] Appropriate models were selected by visual inspection of the Eadie–Hofstee plot [34]. Model fitting and parameter estimation were performed by GraphPad Prism V5 software (GraphPad Software, Inc., San Diego, CA, USA).
The parameter were as follow. V is the formation rate of the product. Vmax is the maximal velocity. Km is the Michaelis constant, and [S] is the substrate. Ksi is the substrate inhibition constant. The intrinsic clearance (CLint) was derived by Vmax/Km for the Michaelis–Menten and substrate inhibition models [12]. (1) V=Vmax ×[S]/Km+[S] (2) V=Vmax ×[S]/Km + [S](1+[S]/Ksi)
as §3

not read [6] = substrate: C[C@H](CCC(=O)O)[C@H]1CC[C@H]2[C@@H]3[C@H](O)C[C@@H]4C[C@H](O)CC[C@]4(C)[C@H]3CC[C@]12C; experiment: not read; settings: other: probe substrate glucuronidation; UGT1A3; pH 7.4
[7] = substrate: COc1ccc(-c2oc3c(CCC(C)(C)O)c(O)cc(O)c3c(=O)c2O)cc1; experiment: Glucuronidation by expressed UGT1A7; type: in vitro ADME, human; settings: pH 7.4
Protocol: as §1, §2

[8] = other: formation of G1 (3-O-glucuronide)
[9] = other: formation of G2 (7-O-glucuronide)
[10] = other: formation of G1 (3-O-glucuronide), UGT2B7
[11] = other: formation of G2 (7-O-glucuronide), UGT2B7
[12] = other: formation of G1 (3-O-glucuronide), UGT1A1
[13] = other: formation of G2 (7-O-glucuronide), UGT1A1

Which results are given for `C[C@]12CC[C@@H]3c4ccc(O)cc4CC[C@H]3[C@@H]1CC[C@@H]2O` [β-estradiol, reference compound]?
Vmax [1]: 0.19 ± 0.09 nmol/min/mg; Km (expressed human UGT1A1): 25.3 ± 4.28 µM

For `O=C1O[C@H]([C@@H](O)CO)C(O)=C1O` [vitamin C, reference compound], which IC50 [2] is on record?
The IC50 was 32 µM.

B1: expressed human UGT1A8 (Homo sapiens) (protein)
chain: GKLLVVPMDGSHWFTMQSVVEKLILRGHEVVVVMPEVSWQLGKSLNCTVKTYSTSYTLEDLDREFMDFADAQWKAQVRSLFSLFLSSSNGFFNLFFSHCRSLFNDRKLVEYLKESSFDAVFLDPFDACGLIVAKYFSLPSVVFARGIACHYLEEGAQCPAPLSYVPRILLGFSDAMTFKERVRNHIMHLEEHLFCQYFSKNALEIASEILQTPVTAYDLYSHTSIWLLRTDFVLDYPKPVMPNMIFIGGINCHQGKPLPMEFEAYINASGEHGIVVFSLGSMVSEIPEKKAMAIADALGKIPQTVLWRYTGTRPSNLANNTILVKWLPQNDLLGHPMTRAFITHAGSHGVYESICNGVPMVMMPLFGDQMDNAKRMETKGAGVTLNVLEMTSEDLENALKAVINDKSYKENIMRLSSLHKDRPVEPLDLAVFWVEFVMRHKGAPHLRPAAHDLTWYQYHSLDVIGFLLAVVLTVAFITFKCCAYGYRKCLGKKGRVKKAHKSKTH
notes: purchased Corning Biosciences
With B1 as the molecule, how does the K0.5 [3, 8] read?
The K0.5 was 0.38 ± 0.03 µM.

What about the Vmax [3, 8] of the same molecule?
The Vmax was 2e-05 µmol/min/mg.

And the Vmax/Km [3, 8]?
Its Vmax/Km is 50 µL/min/mg.

And the K0.5 [3, 9]?
Its K0.5 is 0.58 ± 0.07 µM.

What about the Vmax [3, 9] of the same molecule?
The Vmax was 7e-05 µmol/min/mg.

What about the Vmax/Km [3, 9] of the same molecule?
The Vmax/Km was 120 µL/min/mg.

B2: expressed human UGT2B7 (Homo sapiens) (protein)
chain: GKVLVWAAEYSHWMNIKTILDELIQRGHEVTVLASSASILFDPNNSSALKIEIYPTSLTKTELENFIMQQIKRWSDLPKDTFWLYFSQVQEIMSIFGDITRKFCKDVVSNKKFMKKVQESRFDVIFADAIFPCSELLAELFNIPFVYSLSFSPGYTFEKHSGGFIFPPSYVPVVMSELTDQMTFMERVKNMIYVLYFDFWFEIFDMKKWDQFYSEVLGRPTTLSETMGKADVWLIRNSWNFQFPYPLLPNVDFVGGLHCKPAKPLPKEMEDFVQSSGENGVVVFSLGSMVSNMTEERANVIASALAQIPQKVLWRFDGNKPDTLGLNTRLYKWIPQNDLLGHPKTRAFITHGGANGIYEAIYHGIPMVGIPLFADQPDNIAHMKARGAAVRVDFNTMSSTDLLNALKRVINDPSYKENVMKLSRIQHDQPVKPLDRAVFWIEFVMRHKGAKHLRVAAHDLTWFQYHSLDVIGFLLVCVATVIFIVTKCCLFCFWKFARKAKKGKND
What does the source list for B2?
K0.5 (not read [4]; [10]): 2.34 ± 0.19 µM; Vmax (not read [4]; [10]): 3e-05 µmol/min/mg; Vmax/Km (not read [4]; [10]): 10 µL/min/mg; K0.5 (not read [4]; [11]): 5.28 ± 0.98 µM; Vmax (not read [4]; [11]): 1e-05 µmol/min/mg; Vmax/Km (not read [4]; [11]): 2 µL/min/mg

B3: expressed human UGT1A3 (Homo sapiens) (protein)
chain: GKVLVVPIDGSHWLSMREVLRELHARGHQAVVLTPEVNMHIKEENFFTLTTYAISWTQDEFDRHVLGHTQLYFETEHFLKKFFRSMAMLNNMSLVYHRSCVELLHNEALIRHLNATSFDVVLTDPVNLCAAVLAKYLSIPTVFFLRNIPCDLDFKGTQCPNPSSYIPRLLTTNSDHMTFMQRVKNMLYPLALSYICHAFSAPYASLASELFQREVSVVDILSHASVWLFRGDFVMDYPRPIMPNMVFIGGINCANRKPLSQEFEAYINASGEHGIVVFSLGSMVSEIPEKKAMAIADALGKIPQTVLWRYTGTRPSNLANNTILVKWLPQNDLLGHPMTRAFITHAGSHGVYESICNGVPMVMMPLFGDQMDNAKRMETKGAGVTLNVLEMTSEDLENALKAVINDKSYKENIMRLSSLHKDRPVEPLDLAVFWVEFVMRHKGAPHLRPAAHDLTWYQYHSLDVIGFLLAVVLTVAFITFKCCAYGYRKCLGKKGRVKKAHKSKTH
notes: purchased Corning Biosciences
What does the source list for B3?
K0.5 [5, 8]: 0.45 ± 0.04 µM; Vmax [5, 8]: 0.00017 µmol/min/mg; Vmax/Km [5, 8]: 360 µL/min/mg; K0.5 [5, 9]: 0.61 ± 0.08 µM; Vmax [5, 9]: 0.00023 µmol/min/mg; Vmax/Km [5, 9]: 380 µL/min/mg; Km (not read [6]): 10.90 ± 0.74 µM; Vmax (not read [6]): 0.0002 µmol/min/mg; Vmax/Km (not read [6]): 18.5 µL/min/mg

B4: expressed human UGT1A7 (Homo sapiens) (protein)
chain: GKLLVVPMDGSHWFTMQSVVEKLILRGHEVVVVMPEVSWQLGRSLNCTVKTYSTSYTLEDQDREFMVFADARWTAPLRSAFSLLTSSSNGIFDLFFSNCRSLFNDRKLVEYLKESCFDAVFLDPFDACGLIVAKYFSLPSVVFARGIFCHYLEEGAQCPAPLSYVPRLLLGFSDAMTFKERVWNHIMHLEEHLFCPYFFKNVLEIASEILQTPVTAYDLYSHTSIWLLRTDFVLEYPKPVMPNMIFIGGINCHQGKPVPMEFEAYINASGEHGIVVFSLGSMVSEIPEKKAMAIADALGKIPQTVLWRYTGTRPSNLANNTILVKWLPQNDLLGHPMTRAFITHAGSHGVYESICNGVPMVMMPLFGDQMDNAKRMETKGAGVTLNVLEMTSEDLENALKAVINDKSYKENIMRLSSLHKDRPVEPLDLAVFWVEFVMRHKGAPHLRPAAHDLTWYQYHSLDVIGFLLAVVLTVAFITFKCCAYGYRKCLGKKGRVKKAHKSKTH
notes: purchased Corning Biosciences
Which results are given for B4?
K0.5 [7, 8]: 0.47 ± 0.03 µM; Vmax [7, 8]: 0.00017 µmol/min/mg; Vmax/Km [7, 8]: 360 µL/min/mg; K0.5 [7, 9]: 0.61 ± 0.08 µM; Vmax [7, 9]: 0.00023 µmol/min/mg; Vmax/Km [7, 9]: 380 µL/min/mg

B5: expressed human UGT1A1 (Homo sapiens) (protein)
chain: HAGKILLIPVDGSHWLSMLGAIQQLQQRGHEIVVLAPDASLYIRDGAFYTLKTYPVPFQREDVKESFVSLGHNVFENDSFLQRVIKTYKKIKKDSAMLLSGCSHLLHNKELMASLAESSFDVMLTDPFLPCSPIVAQYLSLPTVFFLHALPCSLEFEATQCPNPFSYVPRPLSSHSDHMTFLQRVKNMLIAFSQNFLCDVVYSPYATLASEFLQREVTVQDLLSSASVWLFRSDFVKDYPRPIMPNMVFVGGINCLHQNPLSQEFEAYINASGEHGIVVFSLGSMVSEIPEKKAMAIADALGKIPQTVLWRYTGTRPSNLANNTILVKWLPQNDLLGHPMTRAFITHAGSHGVYESICNGVPMVMMPLFGDQMDNAKRMETKGAGVTLNVLEMTSEDLENALKAVINDKSYKENIMRLSSLHKDRPVEPLDLAVFWVEFVMRHKGAPHLRPAAHDLTWYQYHSLDVIGFLLAVVLTVAFITFKCCAYGYRKCLGKKGRVKKAHKSKTH
Which K0.5 (not read [4]; [12]) does the source give for B5 here?
Its K0.5 is 0.98 ± 0.20 µM.

And the Vmax (not read [4]; [12])?
The Vmax was 0.00113 µmol/min/mg.

What about the Vmax/Km (not read [4]; [12]) of the same molecule?
The Vmax/Km was 1160 µL/min/mg.

And the K0.5 (not read [4]; [13])?
Its K0.5 is 0.68 ± 0.08 µM.

And the Vmax (not read [4]; [13])?
Its Vmax is 0.00011 µmol/min/mg.

And the Vmax/Km (not read [4]; [13])?
The Vmax/Km was 160 µL/min/mg.
